# Reference: the RNAGym collection of RNA variant scans (doi:10.1093/molbev/msab373)
# B1: Azoarcus group I ribozyme (parent)
# chain: GUGCCUUGCGCCGGGAAACCACGCAAGGGAUGGUGUCAAAUUCGGCGAAACCUAAGCGCCCGCCCGGGCGUAUGGCAACGCCGAGCCAAGCUUCGGCGCCUGCGCCGAUGAAGGUGUAGAGACUAGACGGCACCCACCUAAGGCAAACGCUAUGGUGAAGGCAUAGUCCAGGGAGUGGCGAAAGUCACACAAACCGG
# Variants of: B1
# Test: reverse-splicing fitness (ratio to wild type); higher = more active; in vitro selection; Mg2+ level not given
# Summary of the method: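 An in vitro group I ribozyme library with randomized positions was T7-transcribed and gel-purified. In triplicate, 10 pmol RNA in EPPS pH 7.5 was reacted with 50 pmoles of a 30-nt RNA substrate for 1 h at 37 °C across several added MgCl2 levels (1–48 mM), then stopped with EDTA. Products were reverse transcribed from a substrate-complementary primer, PCR-amplified and sequenced (HiSeq 4000). Fitness is a variant's read proportion after selection over that before, normalised to wild type.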
row,Variant,reverse-splicing fitness
1,C82G A111G A120C A145G C150G C169U,0.00987
2,C82G A111G A120C A145G C150G C169U U176A,0.0118
3,C82G A111G A120C A145G C150G C169U U176C,0.0142
4,C82G A111G A120C A145G C150G C169U U176G,0.00784
5,C82G A111G A120C A145G C150G U176A,0.00724
6,C82G A111G A120C A145G C150G U176C,0.011
7,C82G A111G A120C A145G C150G U176G,0.0057
8,C82G A111G A120C A145G C150U,0.0625
9,C82G A111G A120C A145G C150U C169A,0.0104
10,C82G A111G A120C A145G C150U C169A U176A,0.0156
11,C82G A111G A120C A145G C150U C169A U176C,0.0173
12,C82G A111G A120C A145G C150U C169A U176G,0.00689
13,C82G A111G A120C A145G C150U C169G,0.00893
14,C82G A111G A120C A145G C150U C169G U176A,0.0174
15,C82G A111G A120C A145G C150U C169G U176C,0.0192
16,C82G A111G A120C A145G C150U C169G U176G,0.00597
17,C82G A111G A120C A145G C150U C169U,0.016
18,C82G A111G A120C A145G C150U C169U U176A,0.0133
19,C82G A111G A120C A145G C150U C169U U176C,0.0145
20,C82G A111G A120C A145G C150U C169U U176G,0.00664
21,C82G A111G A120C A145G C150U U176A,0.0189

row,Variant,reverse-splicing fitness
1,C82G A111G A120C A145G C150U U176C,0.0344
2,C82G A111G A120C A145G C150U U176G,0.0117
3,C82G A111G A120C A145G C169A,0.00771
4,C82G A111G A120C A145G C169A U176A,0.0151
5,C82G A111G A120C A145G C169A U176C,0.0188
6,C82G A111G A120C A145G C169A U176G,0.00503
7,C82G A111G A120C A145G C169G,0.0079
8,C82G A111G A120C A145G C169G U176A,0.0158
9,C82G A111G A120C A145G C169G U176C,0.0188
10,C82G A111G A120C A145G C169G U176G,0.00476
11,C82G A111G A120C A145G C169U,0.015
12,C82G A111G A120C A145G C169U U176A,0.0142
13,C82G A111G A120C A145G C169U U176C,0.0147
14,C82G A111G A120C A145G C169U U176G,0.00492
15,C82G A111G A120C A145G U176A,0.0236
16,C82G A111G A120C A145G U176C,0.0418
17,C82G A111G A120C A145G U176G,0.00851
18,C82G A111G A120C A145U,0.0901
19,C82G A111G A120C A145U C150A,0.0142
20,C82G A111G A120C A145U C150A C169A,0.0104
21,C82G A111G A120C A145U C150A C169A U176A,0.0183

row,Variant,reverse-splicing fitness
1,C82G A111G A120C A145U C150A C169A U176C,0.0161
2,C82G A111G A120C A145U C150A C169A U176G,0.0061
3,C82G A111G A120C A145U C150A C169G,0.00822
4,C82G A111G A120C A145U C150A C169G U176A,0.0168
5,C82G A111G A120C A145U C150A C169G U176C,0.0209
6,C82G A111G A120C A145U C150A C169G U176G,0.00622
7,C82G A111G A120C A145U C150A C169U,0.00952
8,C82G A111G A120C A145U C150A C169U U176A,0.0146
9,C82G A111G A120C A145U C150A C169U U176C,0.0136
10,C82G A111G A120C A145U C150A C169U U176G,0.00626
11,C82G A111G A120C A145U C150A U176A,0.0132
12,C82G A111G A120C A145U C150A U176C,0.0167
13,C82G A111G A120C A145U C150A U176G,0.00773
14,C82G A111G A120C A145U C150G,0.0127
15,C82G A111G A120C A145U C150G C169A,0.00918
16,C82G A111G A120C A145U C150G C169A U176A,0.0119
17,C82G A111G A120C A145U C150G C169A U176C,0.0134
18,C82G A111G A120C A145U C150G C169A U176G,0.00589
19,C82G A111G A120C A145U C150G C169G,0.00697
20,C82G A111G A120C A145U C150G C169G U176A,0.00957
21,C82G A111G A120C A145U C150G C169G U176C,0.0102

row,Variant,reverse-splicing fitness
1,C82G A111G A120C A145U C150G C169G U176G,0.00515
2,C82G A111G A120C A145U C150G C169U,0.00899
3,C82G A111G A120C A145U C150G C169U U176A,0.0078
4,C82G A111G A120C A145U C150G C169U U176C,0.0131
5,C82G A111G A120C A145U C150G C169U U176G,0.00604
6,C82G A111G A120C A145U C150G U176A,0.00634
7,C82G A111G A120C A145U C150G U176C,0.0121
8,C82G A111G A120C A145U C150G U176G,0.00435
9,C82G A111G A120C A145U C150U,0.0494
10,C82G A111G A120C A145U C150U C169A,0.01
11,C82G A111G A120C A145U C150U C169A U176A,0.0171
12,C82G A111G A120C A145U C150U C169A U176C,0.0137
13,C82G A111G A120C A145U C150U C169A U176G,0.00592
14,C82G A111G A120C A145U C150U C169G,0.0094
15,C82G A111G A120C A145U C150U C169G U176A,0.0171
16,C82G A111G A120C A145U C150U C169G U176C,0.0179
17,C82G A111G A120C A145U C150U C169G U176G,0.00596
18,C82G A111G A120C A145U C150U C169U,0.0124
19,C82G A111G A120C A145U C150U C169U U176A,0.0143
20,C82G A111G A120C A145U C150U C169U U176C,0.0143
21,C82G A111G A120C A145U C150U C169U U176G,0.00591
